Measured values reported in PMC10799895 (Nature Communications, 2024).

Biological target: T1, His-sumo-ATG14 (UniProt Q6ZNE5 1-492)
T1 construct: not shown: 6×His, N-terminal, kept; SUMO, N-terminal, kept
Test: pull-down; GST pull-down in vitro: GST-tagged protein on GST beads with the His-tagged protein overnight at 4 °C in 20 mM Tris pH 7.4, 300 mM NaCl, 0.1% NP-40, 1 mM PMSF; three washes; western blot
Settings: both partners purified

T1 sequence (Q6ZNE5 whole entry): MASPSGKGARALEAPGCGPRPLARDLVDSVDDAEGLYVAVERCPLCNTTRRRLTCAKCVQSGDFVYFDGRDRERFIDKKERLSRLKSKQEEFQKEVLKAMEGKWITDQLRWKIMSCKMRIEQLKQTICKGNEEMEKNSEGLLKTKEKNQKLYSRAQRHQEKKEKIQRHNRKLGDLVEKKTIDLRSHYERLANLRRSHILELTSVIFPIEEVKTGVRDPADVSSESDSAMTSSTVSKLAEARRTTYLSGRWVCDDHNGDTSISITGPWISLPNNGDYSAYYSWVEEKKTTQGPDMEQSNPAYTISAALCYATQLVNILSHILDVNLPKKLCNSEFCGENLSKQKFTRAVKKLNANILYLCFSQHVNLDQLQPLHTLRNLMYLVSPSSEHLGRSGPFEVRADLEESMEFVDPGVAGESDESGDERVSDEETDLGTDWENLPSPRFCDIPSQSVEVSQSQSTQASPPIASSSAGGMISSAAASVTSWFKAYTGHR

binding result: binds
B1: GST-GABARAP (natural protein, UniProt O95166 1-117, looked up)
chain: MKFVYKEEHPFEKRRSEGEKIRKKYPDRVPVIVEKAPKARIGDLDKKKYLVPSDLTVGQFYFLIRKRIHLRAEDALFFFVNNVIPPTSATMGQLYQEHHEEDFFLYIAYSDESVYGL
notes: also called GST-ATG8s; not shown: GST, N-terminal, kept
